Data as given in patent US20030103985A1.

Molecular target: CD44v6 on antigen-positive FaDu cells (human head and neck cancer cell line) (human) (UniProt P16070)
Test: flow cytometry (FACS) on FaDu cells, FITC-labeled anti-human IgG detection, on ice

Kd: 1 nM
B1: BIWA 4 (antibody, human IgG1, kappa, V domains shown)
VH: EVQLVESGGGLVKPGGSLRLSCAASGFTFSSYDMSWVRQAPGKGLEWVSTISSGGSYTYYLDSIKGRFTISRDNAKNSLYLQMNSLRAEDTAVYYCARQGLDYWGRGTLVTVSS
VL: EIVLTQSPATLSLSPGERATLSCSASSSINYIYWYQQKPGQAPRLLIYLTSNLASGVPARFSGSGSGTDFTLTISSLEPEDFAVYYCLQWSSNPLTFGGGTKVEIKR
